Measurements reported in US20240109955A1.

Assays:
Assay in all cases: cell-based or functional assay
[1] = biological target: SARS-CoV-2 Omicron BQ.1.1 spike protein (SARS-CoV-2)
[2] = biological target: SARS-CoV-2 Omicron XBB spike protein (SARS-CoV-2)
[3] = biological target: SARS-CoV-2 Omicron BQ.1 spike protein (SARS-CoV-2)
[4] = biological target: SARS-CoV-2 Omicron BA.4.6 spike protein (SARS-CoV-2)
[5] = biological target: SARS-CoV-2 Omicron BF.7 spike protein (SARS-CoV-2)
[6] = biological target: SARS-CoV-2 Omicron BA.2.75.2 spike protein (SARS-CoV-2)
[7] = biological target: SARS-CoV-2 Omicron BA.4/5 spike protein (SARS-CoV-2)

B1: MX1041 (bispecific antibody)
chain: QTVVTQEPSFSVSPGGTVTLTCGLSSGSVSTAYFPSWYQQTPGQAPRTLIYGTNTRSSGVPDRFSGSILGNKAALTITGAQADDESDYYCVLYMGRGIVVFGGGTKLTVLGGSSGEIVLTQSPGTLSLSPGETATLSCRASQSFSSDLAWYQQKPGQAPRLLIYGASSRATGIPDRFSGSGSGTDFTLTISRLEPADFAVYYCQQYGSSPPVTFGGGTKVEIKGGGGSGGSGSGGGGSASGSGEVQLVESGGGLIQPGGSLRLSCAASGVIVSYNYMNWVRQAPGKGLEWVSVIYSGGSTFYADSVRGRFTISRDNSKNTLYLQMNSLRAEDTAVYYCARDLGPAGAFDIWGLGTMVTVSSGGSSGQVQLVESGGGVVQPGRSLRLSCAASGFTLSSYGMHWVRQAPGKGLEWVAVISYDGSNKYYVDSVKGRFTISRDNSKNTLYLQMNSLRAEDTAVYYCRWAYWELLPDYYYGMDVWGQGTTVTVSSASGGSGDKTHTCPPCPAPELLGGPSVFLFPPKPKDTLMISRTPEVTCVVVDVSHEDPEVKFNWYVDGVEVHNAKTKPREEQYNSYVVSVLTVLHQDWLNGKEYKCKVSNKALPAPIEKTISKAKGQPREPQVYTLPPSRDELTKNQVSLTCLVKGFYPSDIAVEWESNGQPENNYKTTPPVLDSDGSFFKKLTVDKSRWQQGNVFSCSVLHEALHSHYTQKSLSLSPG
- IC50, pseudovirus neutralization [1]: 0.0493 µg/mL
- IC80, pseudovirus neutralization [1]: 0.11 µg/mL
- IC50, pseudovirus neutralization [2]: 0.0691 µg/mL
- IC80, pseudovirus neutralization [2]: 0.398 µg/mL
- IC50, pseudovirus neutralization [3]: 0.0429 µg/mL
- IC80, pseudovirus neutralization [3]: 0.188 µg/mL
- IC50, pseudovirus neutralization [4]: 0.0257 µg/mL
- IC80, pseudovirus neutralization [4]: 0.0671 µg/mL
- IC50, pseudovirus neutralization [5]: 0.00835 µg/mL
- IC80, pseudovirus neutralization [5]: 0.0304 µg/mL
- IC50, pseudovirus neutralization [6]: 0.0129 µg/mL
- IC80, pseudovirus neutralization [6]: 0.0362 µg/mL
- IC50, pseudovirus neutralization [7]: 0.012 µg/mL
- IC80, pseudovirus neutralization [7]: 0.0262 µg/mL
